Data reported in US20120231005A1 (Merck Sharp & Dohme, published 2012).

Assays:
[1] = target: human PCSK9 (human, UniProt Q8NBP7 31-692, limits assumed); experiment: cell-based or functional assay
[2] = target: rhesus PCSK9 (rhesus, UniProt A8T644 31-692 (Pan troglodytes entry), limits assumed); experiment: cell-based or functional assay

human PCSK9, sequence (Q8NBP7 31-692 limits assumed): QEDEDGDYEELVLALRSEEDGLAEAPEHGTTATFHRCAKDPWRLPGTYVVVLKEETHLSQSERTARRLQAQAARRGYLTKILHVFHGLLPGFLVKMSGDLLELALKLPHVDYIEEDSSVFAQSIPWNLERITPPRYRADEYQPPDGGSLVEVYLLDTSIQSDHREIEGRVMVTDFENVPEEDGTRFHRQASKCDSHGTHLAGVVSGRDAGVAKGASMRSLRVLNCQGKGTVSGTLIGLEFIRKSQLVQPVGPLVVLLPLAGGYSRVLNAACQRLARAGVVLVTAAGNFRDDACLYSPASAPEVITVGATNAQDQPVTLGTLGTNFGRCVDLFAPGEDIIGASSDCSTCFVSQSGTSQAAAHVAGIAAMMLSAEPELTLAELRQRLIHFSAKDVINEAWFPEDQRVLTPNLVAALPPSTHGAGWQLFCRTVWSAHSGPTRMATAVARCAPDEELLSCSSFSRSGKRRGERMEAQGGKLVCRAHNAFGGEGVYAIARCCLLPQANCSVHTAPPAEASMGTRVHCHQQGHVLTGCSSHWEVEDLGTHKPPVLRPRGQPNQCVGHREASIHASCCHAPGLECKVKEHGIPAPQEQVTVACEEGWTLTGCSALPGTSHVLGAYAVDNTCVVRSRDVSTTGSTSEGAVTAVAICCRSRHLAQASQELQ

B1: AX9 IgG1 (antibody, V domains shown)
VH: EVQLLESGGGLVQPGGSLRLSCKASGYTFSSYWMHWVRQAPGKGLEWIGRIDPYNGGTKYNEKFKGKATISRDNSKNTLYLQMNSLRAEDTAVYYCARYGYYLGSYAMDYWGQGTLVTVSS
VL: DIQMTQSPSSLSASVGDRVTITCRASQDVSKYLAWYQQKPGKAPKLLIYAASSLQSGVPSRFSGSGSGTDFTLTISSLQPEDFATYYCQVYDSSPNAYVFGGGTKVEIK
IgG IC50 (nM), inhibition of PCSK9 on LDL uptake (Exopolar assay) [1]: 10.7 nM | IgG IC50 (nM), inhibition of PCSK9 on LDL uptake (Exopolar assay) [2]: 30.3 nM
